Numbering of substitutions follows the chain as printed. Like-named read-outs stand apart in the source and are kept apart here.
Legend:
[1] = molecular target: T1, Human full length B7-H3 (human, UniProt Q5ZPR3 29-534); experiment: FACS, cell surface human B7-H3 (as Example 6)
T1 construct: On 3T12 fibroblasts expressing full length human B7-H3 or on NCI-H1650 cells; signal peptide residues 1-28 stated; also called huB7-H3; CD276
T1 sequence: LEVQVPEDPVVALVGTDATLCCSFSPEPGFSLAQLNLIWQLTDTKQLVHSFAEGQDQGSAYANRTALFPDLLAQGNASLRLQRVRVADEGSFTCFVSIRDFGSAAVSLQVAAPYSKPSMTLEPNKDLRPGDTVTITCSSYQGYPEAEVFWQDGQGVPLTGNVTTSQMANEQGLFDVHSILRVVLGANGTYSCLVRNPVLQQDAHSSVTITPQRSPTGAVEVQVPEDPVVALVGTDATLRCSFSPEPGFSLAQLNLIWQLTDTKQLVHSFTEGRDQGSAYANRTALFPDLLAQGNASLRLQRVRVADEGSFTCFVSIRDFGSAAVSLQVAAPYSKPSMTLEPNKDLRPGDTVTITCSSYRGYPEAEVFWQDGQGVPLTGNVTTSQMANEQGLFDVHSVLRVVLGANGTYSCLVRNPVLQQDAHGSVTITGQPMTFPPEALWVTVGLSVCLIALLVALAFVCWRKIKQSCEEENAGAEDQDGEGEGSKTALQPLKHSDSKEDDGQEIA
Procedure, shortened: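 Harvested cells near 80% confluence, resuspended in PBS/1% FBS, were incubated with anti-B7-H3 mAb or ADC at varying final concentrations, then with AlexaFluor 488 secondary Ab at 4° C. for 1 h. Cells fixed in PBS/1% formaldehyde and binding read by flow cytometry.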

[2] = molecular target: T2, hB7-H3 (ELISA antigen of Tables 17 and 20) (human, UniProt Q5ZPR3 29-466, limits assumed); experiment: ELISA
T2 sequence: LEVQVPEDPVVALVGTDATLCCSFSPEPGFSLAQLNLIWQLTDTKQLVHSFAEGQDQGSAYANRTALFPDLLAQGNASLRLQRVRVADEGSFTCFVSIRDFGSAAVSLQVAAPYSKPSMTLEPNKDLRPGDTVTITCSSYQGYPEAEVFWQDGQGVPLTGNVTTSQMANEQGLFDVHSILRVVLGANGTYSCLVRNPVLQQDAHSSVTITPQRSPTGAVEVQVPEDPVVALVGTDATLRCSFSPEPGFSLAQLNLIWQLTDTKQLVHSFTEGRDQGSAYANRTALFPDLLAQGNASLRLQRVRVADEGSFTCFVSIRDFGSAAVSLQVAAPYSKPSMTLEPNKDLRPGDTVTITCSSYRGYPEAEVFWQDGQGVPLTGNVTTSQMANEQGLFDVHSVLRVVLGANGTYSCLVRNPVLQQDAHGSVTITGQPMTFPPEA

[3] = molecular target: T3, Cynomolgous B7-H3 on cells (cynomolgus); experiment: FACS (Example 6 method)
T3 construct: whole, on cells; also called cyB7-H3; cyno B7-H3
Procedure: (§1) Cells were harvested from flasks when approximately 80% confluent using Gibco® Cell Dissociation Buffer. Cells were washed once in PBS/1% FBS (FACS buffer) then resuspended at 2.5×10⁶ cells/mL in FACS buffer. 100 μL of cells/well were added to a round bottom 96-well plate. 10 μL of a 10× concentration of mAb/ADC (final concentrations are indicated the figures). Wells were washed twice with FACS buffer and resuspended in 50 μL of secondary Ab (AlexaFluor 488) diluted in FACS buffer. The plate was incubated at 4° C. for one hour and washed twice with FACS buffer. Cells were resuspended in 100 μL of PBS/1% formaldehyde and analyzed on a Becton Dickinson LSRII flow cytometer. Data was analyzed using WinList flow cytometry analysis software.
(§2) Nine huAb13 variants described in Examples 17 and 18 were generated and tested for binding to B7-H3 by FACS (according to methods described in Example 6).

[4] = molecular target: T1, Human full length B7-H3; experiment: FACS (Example 6 method)
Procedure: as §1, §2

[5] = molecular target: T1, Human full length B7-H3; experiment: cell-based or functional assay
[6] = molecular target: T1, Human full length B7-H3; experiment: FACS
[7] = molecular target: T1, Human full length B7-H3; experiment: FACS, 3T12 transfectants
[8] = molecular target: T4, Human B7-H3-ECD (His tag) (human, UniProt Q5ZPR3 29-461); experiment: SPR Biacore, naked mAb
T4 construct: SPR analyte; also called huB7-H3; soluble ECD of human B7-H3
T4 sequence: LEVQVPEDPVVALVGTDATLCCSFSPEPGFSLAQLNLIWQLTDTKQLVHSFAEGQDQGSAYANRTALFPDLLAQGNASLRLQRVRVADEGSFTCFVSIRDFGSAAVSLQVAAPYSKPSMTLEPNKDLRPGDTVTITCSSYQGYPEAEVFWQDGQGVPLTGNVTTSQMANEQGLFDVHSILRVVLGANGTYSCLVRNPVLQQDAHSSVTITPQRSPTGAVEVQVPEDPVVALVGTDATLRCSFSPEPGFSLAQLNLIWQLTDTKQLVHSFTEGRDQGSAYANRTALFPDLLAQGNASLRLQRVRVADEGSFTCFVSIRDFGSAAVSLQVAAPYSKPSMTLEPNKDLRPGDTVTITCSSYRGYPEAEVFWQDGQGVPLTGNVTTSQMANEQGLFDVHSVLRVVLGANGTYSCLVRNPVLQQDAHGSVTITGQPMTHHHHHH
Excerpt: (§3) Biacore T200 SPR instruments were used to measure the binding kinetics of human B7-H3 (analyte) binding to various mAbs (ligands). The assay format was Fc-based capture via immobilized anti-mouse (Fc) (Pierce 31170) or immobilized anti-human (Fc) (Pierce 31125). A standard amine coupling protocol was employed to immobilize the capture reagents via primary amines to the carboxy-methyl (CM) dextran surface of CM5 sensorchips (Biacore); capture antibodies were coupled to a level of approximately 5000RU. For binding kinetic measurements the assay buffer was HBS-EP+ (Biacore): 10 mM Hepes, pH7.4, 150 mM NaCl, 3 mM EDTA, 0.05% polysorbate 20. During the assay, all measurements were referenced against the capture surface alone. Each assay cycle consisted of the following steps: 1) Capture of ligand to approximately 50RU; 2) Analyte injection over both reference and test surface, 240 μL at 80 μL/min, after which the dissociation was monitored for 900 seconds at 80 μL/min; 3) Regeneration of capture surface with low pH glycine. […] Data were processed and fit to a 1:1 binding model using Biacore T200 Evaluation Software to determine the binding kinetic rate constants, kₐ (on-rate) and kd (off-rate), and the equilibrium dissociation constant (affinity, KD).

[9] = molecular target: T4, Human B7-H3-ECD (His tag); experiment: SPR Biacore, naked mAb; remark: listed apart in the source
Excerpt: as §3
These variants were further characterized for binding by SPR and as ADCs conjugated to the Bcl-xL inhibitor synthon (linker warhead) CZ. […] An ADC comprising chAb3 conjugated to synthon CZ was used as a control.

B1: chAb13-CZ (antibody, IgG1, V domains shown)
VH: DVQLQESGPDLVKPSQSLSLTCTVTGYSITSGYSWHWIRQFPGNKLEWMGYIHSSGSTNYNPSLKSRISINRDTSKNQFFLQLNSVTTEDTATYYCAGYDDYFEYWGQGTTLTVSS
VL: DIVMTQSQKFMSTSVGDRVSVTCKASQNVGFNVAWYQQKPGQSPKALIYSASYRYSGVPDRFTGSGSGTDFTLTISNVQSEDLAEYFCQQYNSYPFTFGSGTKLEIK
modifications: synthon CZ on reduced interchain Cys
B1 showed an EC50 [1] of 1.49 nM, an EC50 [2] of 0.26 nM and an EC50 [3] of 18.4 nM. For the same binder, the EC50 [4] was 6.27 nM.

B2: huAb13v1-CZ (antibody, human IgG1, kappa, L234A L235A, V domains shown)
VH: EVQLQESGPGLVKPSETLSLTCAVTGYSITSGYSWHWIRQFPGNGLEWMGYIHSSGSTNYNPSLKSRISISRDTSKNQFFLKLSSVTAADTAVYYCAGYDDYFEYWGQGTTVTVSS
VL: DIQMTQSPSSLSASVGDRVTITCKASQNVGFNVAWYQQKPGKSPKALIYSASYRYSGVPSRFSGSGSGTDFTLTISSLQPEDFAEYFCQQYNWYPFTFGQGTKLEIKR
modifications: synthon CZ on reduced interchain Cys
notes: ADC, DAR 4.0
In the case of B2, the “EC50 nM H1650 (tumor cell cytotoxicity)” value [5] is reported as 0.18 nM, the EC50 [2] is reported as 0.12 nM and the EC50 [3] is reported as 10 nM.

B3: huAb13v5-CZ (antibody, V domains shown)
VH: B2 VH
VL: DIQMTQSPSSLSASVGDRVTITCKASQNVGFNVAWYQQKPGKAPKLLIYSASYRYSGVPSRFSGSGSGTDFTLTISSLQPEDFATYYCQQYNWYPFTFGQGTKLEIK
modifications: synthon CZ on reduced interchain Cys
notes: ADC, DAR 3.4
In the case of B3, the EC50 [2] is reported as 0.19 nM, the EC50 [3] is reported as 10.6 nM and the EC50 [4] is reported as 5.21 nM.

B4: huAb13v6-CZ (antibody, V domains shown)
VH: B2 VH
VL: B3 VL with Y87F
modifications: synthon CZ on reduced interchain Cys
notes: ADC, DAR 3.6
With B4 the EC50 [2] was 0.14 nM, the EC50 [3] was 12.9 nM and the EC50 [4] was 5.83 nM.

B5: huAb13v7 (antibody, V domains shown)
VH: B2 VH with T25S, F41P, S69T, F80S, G98R
VL: B3 VL
notes: humanized IgG
B5: no binding [6].

B6: huAb13v8 (antibody, V domains shown)
VH: B2 VH with T25S, F41P, S69T, F80S, G98R
VL: B3 VL with A43S, L46A, T85E, Y87F
notes: humanized IgG
B6: no binding [6].

B7: huAb13v3 (antibody, V domains shown)
VH: B2 VH with T25S, F41P, N44K, M49I, I68V, S69T, R72V, F80S, G98R
VL: B3 VL with A43S, L46A, T85E, Y87F
notes: humanized IgG
B7: no binding [6].

B8: huAb13v2 (antibody, V domains shown)
VH: B2 VH with T25S, F41P, N44K, M49I, I68V, S69T, R72V, F80S, G98R
VL: B3 VL
notes: humanized IgG
B8: no binding [6].

B9: huAb13v4 (antibody, V domains shown)
VH: B2 VH with T25S, F41P, N44K, M49I, I68V, S69T, R72V, F80S, G98R
VL: B3 VL with Y87F
notes: humanized IgG
B9: no binding [6].

B10: huAb3v2.2 (antibody, V domains shown)
VH: EVQLVQSGAEVKKPGSSVKVSCKASGYTFSSYWMHWVRQAPGQGLEWIGLIHPWSGSTNYNEMFKNRATLTVDRSTSTAYMELSSLRSEDTAVYYCAGGGRLYFDYWGQGTTVTVSS
VL: DIVMTQSPLSLPVTPGEPASISCRSSQSLVHSNRDTYLRWYLQKPGQSPQLLIYKVSNRFSGVPDRFSGSGSGTDFTLKISRVEAEDVGVYYCSQSTHVPYTFGGGTKVEIK
notes: humanized IgG
B10: binds [7].

B11: huAb3v2.8 (antibody, V domains shown)
VH: B10 VH with W54I
VL: B10 VL
notes: humanized IgG
B11: binds [7].

B12: huAb3v2 (antibody, V domains shown)
VH: B10 VH with W54D
VL: B10 VL with R34G
notes: humanized IgG
B12 gave a Kd [8] of 2.3 nM and a Kd [9] of 0.69 nM.

B13: huAb3v2.9 (antibody, V domains shown)
VH: B10 VH with W54I
VL: B10 VL with R34Q
notes: humanized IgG
B13: binds [7].

B14: huAb3v2.3 (antibody, V domains shown)
VH: B10 VH
VL: B10 VL with R34Q
notes: humanized IgG
B14: binds [7].
